Assay results: patent US20160130569, “A LAGLIDADG HOMING ENDONUCLEASE CLEAVING THE T CELL RECEPTOR ALPHA GENE AND USES THEREOF” (CELLECTIS, published 2016)

T1: TCRA_S02_2E5 (Ophiostoma novo-ulmi (engineered))
T1 chain: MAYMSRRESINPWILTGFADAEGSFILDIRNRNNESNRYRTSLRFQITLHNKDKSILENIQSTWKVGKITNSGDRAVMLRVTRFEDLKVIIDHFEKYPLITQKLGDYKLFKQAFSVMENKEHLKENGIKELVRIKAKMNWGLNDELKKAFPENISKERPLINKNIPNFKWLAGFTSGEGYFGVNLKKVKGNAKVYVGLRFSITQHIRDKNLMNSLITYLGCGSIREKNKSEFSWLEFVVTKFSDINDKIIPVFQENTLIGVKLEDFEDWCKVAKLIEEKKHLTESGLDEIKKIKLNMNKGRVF

T2: I-OnuI wild type (OnuWT) (Ophiostoma novo-ulmi)
T2 chain: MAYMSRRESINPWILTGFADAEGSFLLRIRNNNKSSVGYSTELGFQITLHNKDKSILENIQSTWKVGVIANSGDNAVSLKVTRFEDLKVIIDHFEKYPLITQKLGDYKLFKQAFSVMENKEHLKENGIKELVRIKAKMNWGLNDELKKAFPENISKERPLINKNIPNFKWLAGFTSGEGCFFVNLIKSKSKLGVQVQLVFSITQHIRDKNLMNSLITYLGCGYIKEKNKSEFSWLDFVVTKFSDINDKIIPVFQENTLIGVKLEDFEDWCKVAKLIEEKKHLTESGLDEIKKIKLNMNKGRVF

B1: TCRA_S02 (dsDNA)
DNA 1: TGTCTGCCTATTCACCGATTTT
DNA 2: AAAATCGGTGAATAGGCAGACA
B2: I-OnuI native target (dsDNA)
DNA 1: TTTCCACTTATTCAACCTTTTA
DNA 2: TAAAAGGTTGAATAAGTGGAAA

Key:
[1] = biological target: T1, TCRA_S02_2E5; experiment: flow; yeast surface display titration; Example 3 text names the variant as TCRA_S02_2E5_RD1_08; conditions: label: fluorescent dye (Alexa Fluor 647) in yeast display assays
Experimental: (§1) Samples of yeast displaying each LHE variant were independently incubated with increasing concentrations of fluorescent dye-labeled synthetic DNA substrates (y-axis). An antibody to a C-terminal epitope was also included (x-axis) such that DNA binding activity could be normalized to the amount of LHE protein expressed on the yeast surface, creating the co-linear pattern, with higher signal in the y-axis per x-axis signal where affinity is greater.
The LHE containing the engineered DNA recognition interfaces for the TCRA_S02 (SEQ ID NO: 3) target was tested for affinity, specificity, and toxicity characteristics. Affinity was tested by independently incubating yeast displaying the TCRA_S02_2E5_RD1_08 variant, (SEQ ID NO: 7, encoding SEQ ID NO: 8) with DNA substrates containing its target sequences at various concentrations. See FIG. 6 showing the affinity properties of this variant relative to the wild-type I-Onul protein. […] Toxicity was analyzed by in vitro transcribing each LHE into mRNA and transfecting primary human T cells by electroporation, followed by flow cytometry analysis of the survival of the cells relative to transfection with a control mRNA encoding a blue fluorescent protein (BFP). […]

[2] = biological target: T2, I-OnuI wild type (OnuWT); experiment: flow; yeast surface display titration; conditions: label: Alexa Fluor 647
Experimental: as §1
The LHE containing the engineered DNA recognition interfaces for the TCRA_S02 (SEQ ID NO: 3) target was tested for affinity, specificity, and toxicity characteristics. Affinity was tested by independently incubating yeast displaying the TCRA_S02_2E5_RD1_08 variant, (SEQ ID NO: 7, encoding SEQ ID NO: 8) with DNA substrates containing its target sequences at various concentrations. See FIG. 6 showing the affinity properties of this variant relative to the wild-type I-Onul protein. […] Toxicity was analyzed by in vitro transcribing each LHE into mRNA and transfecting primary human T cells by electroporation, followed by flow cytometry analysis of the survival of the cells relative to transfection with a control mRNA encoding a blue fluorescent protein (BFP).

Binder	Kd [1] [nM]	Kd [2] [nM]
B1	~0.09	
B2		~0.08
